Source: the MegaScale stability set (Tsuboyama et al. 2023)

B1: 2K2A (parent)
chain: ELREAFRLYDKEGNGYISTDVMREILAELDETLSSEDLDAMIDEIDADGSGTVDFEEFMGVMT

Variants of: B1
Experiment: folding stability dG (cDNA display proteolysis); higher = more stable
Settings: PBS, room temperature

Folding stability dG [kcal/mol] of substitutions, site by site:
L38: H -0.529 | K 0.304 | S -0.47 | Q 0.089 | D -0.787 | P -0.322 | E -0.551 | V 1.52 | G -0.721 | F 0.593 | R 0.432 | Y 0.134 | M 1.26 | I 1.99 | A 0.262 | W 0.599 | T 0.114 | C 0.399
G51: C 0.991 | W 0.564 | L 0.92 | V 0.029 | F 0.853 | K 1.27 | I 0.064 | D 0.686 | Q 1.01 | N 1.18 | M 1.15 | S 0.834 | R 1.35 | H 1.39 | A 0.849 | E 0.622 | P -0.745 | T 0.424 | Y 0.517
E36: W 1.87 | N 1.66 | L 1.66 | H 1.65 | I 1.53 | M 1.7 | G 1.54 | R 1.82 | S 1.88 | V 1.69 | T 1.82 | Q 1.82 | P 1.04 | K 1.81 | Y 1.81
D46: C 0.854 | L 0.716 | Q 0.665 | F 0.726 | Y 0.647 | M 0.648 | A 0.858 | K 0.845 | W 0.628 | P -0.155 | H 0.812 | N 1.46 | E 0.581 | R 0.799 | S 0.962 | V 0.984 | G 0.581 | I 0.796 | T 0.826
I45: V 1.57 | C 0.783 | Y 1.05 | G 0.37 | A 1.56 | R 0.158 | W 1.32 | N -0.113 | P -0.366 | L 1.74 | H 0.664 | F 1.21 | Q 0.111 | S 0.36 | M 1.93 | T 0.714 | K -0.192
D48: I 1.24 | Y 1.3 | G 1.37 | N 1.84 | C 1.4 | A 1.48 | R 1.52 | Q 1.31 | M 1.33 | L 1.38 | E 1.48 | K 1.57 | H 1.51 | S 1.57 | T 1.6 | V 1.18 | W 1.24 | F 1.39 | P 0.465
V53: R -0.087 | W 0.916 | K -0.419 | M 0.875 | F 1.07 | P -0.828 | S 0.029 | H 0.004 | A 0.162 | C 0.799 | Y 0.679 | Q -0.515 | I 2.37 | G -0.308 | T -0.067 | L 1.58
T52: C 1.15 | N 1.49 | L 1.65 | M 1.74 | K 1.74 | A 1.11 | P -0.373 | Y 1.52 | E 1.28 | F 1.53 | R 1.87 | G 1.02 | W 1.31 | S 1.45 | Q 1.68 | D 0.729 | H 1.69 | I 1.64 | V 1.55
D43: M 2.32 | Y 2.16 | L 2.23 | E 2.03 | N 2.2 | G 1.87 | W 2.16 | K 2.26 | H 2.16 | T 1.89 | R 2.35 | P 0.558 | S 2.18 | V 1.96 | A 2.29 | F 2.13 | I 2.04 | Q 2.17 | C 2.1
S50: P 0.13 | M 1.29 | N 1.67 | H 1.16 | A 1.11 | V 1.18 | C 1.39 | E 0.94 | Q 1.12 | L 1.22 | G 1.05 | Y 1.05 | D 1.33 | I 1.14 | K 1.78 | W 0.737 | R 1.61 | T 1.88 | F 0.991
M41: E -0.173 | Q 0.887 | W 2.43 | L 2.03 | G 0.01 | R 1.47 | D -0.547 | A 1.27 | F 1.5 | T 0.556 | S 0.166 | K 1.49 | V 1.21 | Y 1.61 | C 1.37 | P -0.862 | H 0.645 | N -0.4 | I 1.86
D37: N 1.32 | S 1.52 | Q 2.1 | H 1.4 | M 1.96 | L 1.59 | Y 1.26 | R 1.82 | F 1.22 | E 2.08 | K 1.71 | C 2 | W 1.56 | G 1.15 | I 1.65 | A 1.86 | P -0.169 | T 1.76 | V 1.66
D54: A 1.78 | C 1.51
A40: S 1.73 | Q 1.8 | N 1.73 | K 2.11 | I 1.77 | L 1.85 | W 1.6 | M 1.76 | E 1.51 | Y 1.71 | D 1.4 | C 1.93 | V 1.69 | T 1.57 | H 2.19 | P -0.715 | R 2.31 | G 1.34 | F 1.77
E44: M 2.14 | F 2.17 | I 2.07 | T 1.93 | R 2.16 | H 2.06 | A 2.12 | G 1.85 | C 2.19 | W 2.19 | L 2.19 | K 2.14 | D 1.76 | Q 2.06 | P 0.7 | N 1.95 | Y 2.02 | V 2.01 | S 2.02
A47: C 1.97 | G 1.57 | D 1.06 | N 1.62 | V 1.91 | L 1.78 | Y 1.62 | H 1.96 | S 1.8 | I 1.86 | F 1.69 | T 1.84 | E 1.4 | P 1.92 | W 1.96 | K 2.2 | M 1.64 | R 2.06 | Q 1.93
I42: V 1.34 | L 1.73 | P -0.739 | F 1.08 | Q -0.244 | C 0.098 | W 0.22 | R -0.918 | Y -0.094 | D -0.854 | N -0.359 | E -0.498 | K -0.287 | H -0.459 | G -0.688 | M 1.72 | A -0.231 | T 0.392 | S -0.099
G49: C 1.71 | M 1.43 | S 1.63 | P 0.091 | Q 1.77 | V 0.799 | H 1.94 | D 1.42 | F 1.01 | Y 1.04 | N 1.84 | A 1.5 | L 1.29 | I 0.499 | T 0.928 | E 1.26 | R 1.95 | K 1.99 | W 0.635
D39: E 1.4 | I 1.33 | P -0.067 | L 1.3 | Y 1.06 | S 1.39 | N 1.58 | A 1.48 | V 0.996 | K 1.48 | C 1.16 | Q 1.57 | W 1.22 | G 0.971 | H 1.13 | T 1.3 | R 1.41 | M 1.32 | F 1.15
